Laboratory results published in the supplement of paper PMC10065799, “High-throughput profiling of sequence recognition by tyrosine kinases and SH2 domains using bacterial peptide display” (eLife, 2023).

How the values were obtained:
AncSZ = test: phosphorylation enrichment, bacterial display (enrichment ratio); higher = better substrate or ligand; peptides without Tyr show the background
EPHB2 = EPHB2 (UniProt P29323); test: as above
MERTK = MERTK (UniProt Q12866); test: as above
Fyn = Fyn (UniProt P06241); test: as above
c-Abl (mouse) = test: as above
c-Src = test: as above
EPHB1 = EPHB1 (UniProt P54762); test: as above
Hck = Hck (UniProt P08631); test: as above
Fer (mouse) = test: as above
FGFR3 = FGFR3 (UniProt P22607); test: as above
Jak2 = Jak2 (UniProt O60674); test: as above
FGFR1 = FGFR1 (UniProt P11362); test: as above
Fes = Fes (UniProt P07332); test: as above
SHP2-C SH2 = test: SH2 binding enrichment of the phosphorylated peptide, bacterial display (enrichment ratio); higher = better substrate or ligand; peptides without Tyr show the background
Grb2 SH2 = Grb2 SH2 (UniProt P62993); test: as above
c-Src SH2 = test: as above
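Wherever SH2 binding enrichment of the phosphorylated peptide, bacterial display is given: peptide library displayed on the E. coli surface as eCPX fusions, selected cells deep-sequenced, score is each peptide's frequency after selection divided by its frequency in the input.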
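Wherever phosphorylation enrichment, bacterial display is given: 11-residue human phosphosite peptides and single-mutation variants displayed on the E. coli surface, counted by deep sequencing, each peptide's frequency after selection divided by its frequency in the unselected input library; frequency after pTyr selection over input frequency; kinase dosed for 20-30% of maximal phosphorylation in three min.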

Sequence of MERTK (Q12866 whole entry, looked up): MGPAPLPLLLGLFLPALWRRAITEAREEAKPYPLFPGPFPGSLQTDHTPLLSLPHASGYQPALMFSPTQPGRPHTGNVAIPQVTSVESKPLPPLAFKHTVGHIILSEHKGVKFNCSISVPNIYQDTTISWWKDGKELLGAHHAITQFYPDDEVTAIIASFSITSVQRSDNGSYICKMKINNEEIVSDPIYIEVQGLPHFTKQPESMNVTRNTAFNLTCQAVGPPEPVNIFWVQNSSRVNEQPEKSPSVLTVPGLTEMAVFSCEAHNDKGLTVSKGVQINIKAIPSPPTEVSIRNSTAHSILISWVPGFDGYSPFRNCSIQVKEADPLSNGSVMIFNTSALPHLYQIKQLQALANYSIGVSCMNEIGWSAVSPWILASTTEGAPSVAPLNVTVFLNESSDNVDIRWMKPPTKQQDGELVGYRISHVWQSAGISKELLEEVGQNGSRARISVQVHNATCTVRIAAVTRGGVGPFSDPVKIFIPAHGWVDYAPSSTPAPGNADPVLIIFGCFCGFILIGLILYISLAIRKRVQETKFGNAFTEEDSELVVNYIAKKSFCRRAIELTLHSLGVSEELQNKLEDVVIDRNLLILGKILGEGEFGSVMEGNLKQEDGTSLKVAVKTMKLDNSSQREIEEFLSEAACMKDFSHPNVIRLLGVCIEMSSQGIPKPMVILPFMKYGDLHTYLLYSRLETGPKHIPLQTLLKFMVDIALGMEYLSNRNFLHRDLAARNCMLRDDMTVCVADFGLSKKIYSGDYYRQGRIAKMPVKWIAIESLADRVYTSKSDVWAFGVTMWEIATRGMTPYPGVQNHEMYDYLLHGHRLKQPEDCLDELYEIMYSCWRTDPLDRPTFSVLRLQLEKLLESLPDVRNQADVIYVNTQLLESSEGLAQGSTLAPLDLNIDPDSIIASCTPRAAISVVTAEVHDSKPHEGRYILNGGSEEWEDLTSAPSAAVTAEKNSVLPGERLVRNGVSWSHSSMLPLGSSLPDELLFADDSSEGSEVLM
Sequence of Grb2 SH2 (P62993 whole entry, looked up): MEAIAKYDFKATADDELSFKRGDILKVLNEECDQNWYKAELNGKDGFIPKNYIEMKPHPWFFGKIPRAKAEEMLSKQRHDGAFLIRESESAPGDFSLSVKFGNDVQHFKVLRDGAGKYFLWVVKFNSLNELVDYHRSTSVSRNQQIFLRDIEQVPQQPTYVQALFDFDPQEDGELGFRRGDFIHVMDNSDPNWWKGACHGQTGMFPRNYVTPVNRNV
Sequence of Fyn (P06241 whole entry, looked up): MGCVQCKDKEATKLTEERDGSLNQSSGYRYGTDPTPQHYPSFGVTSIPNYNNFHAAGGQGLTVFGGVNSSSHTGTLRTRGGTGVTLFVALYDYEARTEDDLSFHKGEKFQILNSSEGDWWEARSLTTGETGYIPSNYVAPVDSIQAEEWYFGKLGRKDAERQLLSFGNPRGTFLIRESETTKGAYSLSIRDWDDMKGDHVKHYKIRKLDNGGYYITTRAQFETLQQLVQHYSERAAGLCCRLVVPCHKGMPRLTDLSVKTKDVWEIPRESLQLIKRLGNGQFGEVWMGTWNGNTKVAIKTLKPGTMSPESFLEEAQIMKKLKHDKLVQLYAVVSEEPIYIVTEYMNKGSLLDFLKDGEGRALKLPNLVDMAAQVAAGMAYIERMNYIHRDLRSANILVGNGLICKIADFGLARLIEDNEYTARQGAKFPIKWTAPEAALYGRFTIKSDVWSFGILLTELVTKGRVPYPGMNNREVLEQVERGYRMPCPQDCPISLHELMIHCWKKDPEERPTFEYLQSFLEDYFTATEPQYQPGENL
Sequence of Jak2 (O60674 whole entry, looked up): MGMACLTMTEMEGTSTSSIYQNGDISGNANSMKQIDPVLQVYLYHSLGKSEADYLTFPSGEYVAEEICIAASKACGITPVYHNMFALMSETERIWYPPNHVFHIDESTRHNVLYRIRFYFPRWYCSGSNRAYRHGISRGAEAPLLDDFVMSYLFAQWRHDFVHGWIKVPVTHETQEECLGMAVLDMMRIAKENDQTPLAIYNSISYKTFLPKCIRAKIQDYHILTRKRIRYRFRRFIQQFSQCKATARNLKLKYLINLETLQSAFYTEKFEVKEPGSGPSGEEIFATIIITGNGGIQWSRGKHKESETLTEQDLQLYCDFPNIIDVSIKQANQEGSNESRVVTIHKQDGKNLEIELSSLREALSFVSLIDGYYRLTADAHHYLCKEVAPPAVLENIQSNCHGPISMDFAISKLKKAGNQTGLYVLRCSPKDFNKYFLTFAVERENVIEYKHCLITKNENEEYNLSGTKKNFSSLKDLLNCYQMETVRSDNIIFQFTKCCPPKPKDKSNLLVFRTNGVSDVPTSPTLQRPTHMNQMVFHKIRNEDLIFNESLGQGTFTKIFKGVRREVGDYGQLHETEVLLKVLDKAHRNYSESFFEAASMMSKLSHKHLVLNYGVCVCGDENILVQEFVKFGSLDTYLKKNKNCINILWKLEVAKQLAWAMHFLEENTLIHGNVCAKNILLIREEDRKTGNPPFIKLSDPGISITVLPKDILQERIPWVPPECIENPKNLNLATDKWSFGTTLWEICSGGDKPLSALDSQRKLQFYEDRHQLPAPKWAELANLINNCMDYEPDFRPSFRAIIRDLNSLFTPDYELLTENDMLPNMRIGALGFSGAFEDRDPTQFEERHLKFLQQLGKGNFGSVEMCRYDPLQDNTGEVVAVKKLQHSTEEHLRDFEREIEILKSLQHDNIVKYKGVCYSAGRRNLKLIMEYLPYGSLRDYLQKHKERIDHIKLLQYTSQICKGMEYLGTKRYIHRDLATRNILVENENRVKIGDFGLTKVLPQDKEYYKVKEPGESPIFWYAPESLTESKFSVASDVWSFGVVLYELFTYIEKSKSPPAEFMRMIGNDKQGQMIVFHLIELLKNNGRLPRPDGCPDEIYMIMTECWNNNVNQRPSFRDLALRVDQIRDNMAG
Sequence of FGFR1 (P11362 whole entry, looked up): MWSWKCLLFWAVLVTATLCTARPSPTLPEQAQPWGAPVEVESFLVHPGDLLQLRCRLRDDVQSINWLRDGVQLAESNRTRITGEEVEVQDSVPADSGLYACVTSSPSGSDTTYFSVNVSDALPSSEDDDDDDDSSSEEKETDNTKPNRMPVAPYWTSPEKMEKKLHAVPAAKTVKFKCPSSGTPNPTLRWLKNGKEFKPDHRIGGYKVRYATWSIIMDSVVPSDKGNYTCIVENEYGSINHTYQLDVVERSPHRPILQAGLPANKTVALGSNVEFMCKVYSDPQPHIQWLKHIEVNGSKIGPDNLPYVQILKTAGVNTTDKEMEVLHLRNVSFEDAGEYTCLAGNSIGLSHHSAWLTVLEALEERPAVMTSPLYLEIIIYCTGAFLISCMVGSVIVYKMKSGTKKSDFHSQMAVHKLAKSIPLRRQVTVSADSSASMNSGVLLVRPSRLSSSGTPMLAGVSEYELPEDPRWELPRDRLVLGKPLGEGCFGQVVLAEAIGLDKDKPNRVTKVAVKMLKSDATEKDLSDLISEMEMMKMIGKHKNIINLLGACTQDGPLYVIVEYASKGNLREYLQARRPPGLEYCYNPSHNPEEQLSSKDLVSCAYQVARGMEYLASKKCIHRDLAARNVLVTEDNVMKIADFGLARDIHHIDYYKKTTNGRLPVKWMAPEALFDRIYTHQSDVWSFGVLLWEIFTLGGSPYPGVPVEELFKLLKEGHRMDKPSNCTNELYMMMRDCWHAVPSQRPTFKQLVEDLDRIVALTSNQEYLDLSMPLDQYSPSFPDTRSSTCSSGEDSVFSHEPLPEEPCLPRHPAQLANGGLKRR
Sequence of Hck (P08631 whole entry, looked up): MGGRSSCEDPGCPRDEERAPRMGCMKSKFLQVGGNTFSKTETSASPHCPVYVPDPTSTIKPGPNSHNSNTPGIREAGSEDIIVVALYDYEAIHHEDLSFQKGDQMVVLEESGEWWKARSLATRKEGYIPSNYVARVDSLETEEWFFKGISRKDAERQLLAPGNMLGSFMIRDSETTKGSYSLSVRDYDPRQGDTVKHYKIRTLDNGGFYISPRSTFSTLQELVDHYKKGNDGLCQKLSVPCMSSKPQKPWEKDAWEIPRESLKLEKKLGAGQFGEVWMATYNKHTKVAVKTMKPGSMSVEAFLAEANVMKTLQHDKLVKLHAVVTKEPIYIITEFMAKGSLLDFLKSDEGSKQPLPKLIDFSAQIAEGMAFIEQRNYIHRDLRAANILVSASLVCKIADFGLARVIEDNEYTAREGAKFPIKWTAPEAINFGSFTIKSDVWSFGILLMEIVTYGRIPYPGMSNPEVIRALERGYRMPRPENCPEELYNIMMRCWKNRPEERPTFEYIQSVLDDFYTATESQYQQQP
Sequence of Fes (P07332 whole entry, looked up): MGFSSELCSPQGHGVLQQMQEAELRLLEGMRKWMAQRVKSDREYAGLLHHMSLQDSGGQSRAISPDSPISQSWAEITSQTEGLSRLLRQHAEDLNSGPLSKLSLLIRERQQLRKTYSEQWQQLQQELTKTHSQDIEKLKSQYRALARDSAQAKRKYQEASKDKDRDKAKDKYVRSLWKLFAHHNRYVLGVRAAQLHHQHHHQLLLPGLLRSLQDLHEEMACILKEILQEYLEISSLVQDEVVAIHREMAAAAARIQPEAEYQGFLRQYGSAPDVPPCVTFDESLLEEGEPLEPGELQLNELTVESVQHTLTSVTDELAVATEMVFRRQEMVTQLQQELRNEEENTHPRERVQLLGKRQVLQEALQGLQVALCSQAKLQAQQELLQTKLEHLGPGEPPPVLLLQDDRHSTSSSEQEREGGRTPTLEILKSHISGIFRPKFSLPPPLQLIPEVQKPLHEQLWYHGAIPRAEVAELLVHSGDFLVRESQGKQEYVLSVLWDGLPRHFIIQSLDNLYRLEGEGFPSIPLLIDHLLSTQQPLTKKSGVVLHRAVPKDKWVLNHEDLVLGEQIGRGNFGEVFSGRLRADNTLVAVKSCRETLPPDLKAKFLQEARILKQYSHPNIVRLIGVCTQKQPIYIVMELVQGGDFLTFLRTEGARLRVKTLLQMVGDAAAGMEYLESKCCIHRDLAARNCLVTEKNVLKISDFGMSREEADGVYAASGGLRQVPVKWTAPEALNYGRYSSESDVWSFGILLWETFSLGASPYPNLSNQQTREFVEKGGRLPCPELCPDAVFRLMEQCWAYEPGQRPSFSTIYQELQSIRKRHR

Sequence | phosphorylation enrichment (AncSZ) | phosphorylation enrichment (EPHB2) | phosphorylation enrichment (MERTK) | phosphorylation enrichment (Fyn) | phosphorylation enrichment (c-Abl (mouse)) | phosphorylation enrichment (c-Src) | phosphorylation enrichment (EPHB1) | phosphorylation enrichment (Hck) | phosphorylation enrichment (Fer (mouse)) | phosphorylation enrichment (FGFR3) | phosphorylation enrichment (Jak2) | phosphorylation enrichment (FGFR1) | phosphorylation enrichment (Fes) | SH2 binding enrichment (SHP2-C SH2) | SH2 binding enrichment (Grb2 SH2) | SH2 binding enrichment (c-Src SH2)
QTLTDYDTRFF [CSNK2A3_Y131_I133T_YF] | 0.909 | 0.823 | 0.473 | 0.702 | 0.725 | 0.573 | 0.506 | 1.06 | 0.684 | 0.912 | 0.832 | 0.666 | 1.09 | 0.852 | 0.862 | 0.708
RASSVFTRSTG [CCR5_Y339_Y339F] | 0.73 | 0.468 | 0.624 | 0.868 | 0.861 | 0.821 | 0.619 | 0.579 | 0.736 | 0.797 | 0.766 | 0.589 | 0.732 | 0.778 | 0.644 | 0.455
RDWSLYFKIIE [KRT18_Y129_H128L] | 1.66 | 0.576 | 0.327 | 0.447 | 0.4 | 0.354 | 0.799 | 0.356 | 0.464 | 0.841 | 1.09 | 0.395 | 1.56 | 0.406 | 0.567 | 0.314
RFMVGYEMLAQ [GALT_Y339_K334R] | 1.38 | 0.811 | 0.635 | 0.719 | 0.849 | 0.83 | 0.939 | 0.751 | 0.677 | 0.873 | 1.4 | 0.875 | 1.41 | 0.617 | 0.836 | 2.32
RGFRVCFTPDS [PTPRF_Y450_Y450C_YF] | 1.09 | 0.462 | 0.551 | 0.521 | 1.32 | 0.549 | 0.64 | 1.65 | 0.635 | 0.812 | 1.97 | 0.337 | 1.73 | 0.615 | 0.796 | 0.338
RGFRVYFTPDS [PTPRF_Y450_YF] | 1.31 | 0.749 | 0.538 | 0.4 | 1.2 | 0.714 | 0.583 | 0.542 | 0.469 | 0.877 | 1.76 | 0.545 | 1.71 | 0.908 | 1.16 | 1.2
RGKDNYETSQL [SPP1_Y225_S224N] | 0.857 | 0.628 | 0.689 | 0.549 | 0.62 | 0.681 | 0.662 | 0.56 | 0.541 | 0.634 | 0.74 | 0.565 | 0.773 | 0.469 | 0.681 | 0.59
RGRSTCFWPRP [GAGE12J_Y9_Y9C_YF] | 0.71 | 0.733 | 0.796 | 0.693 | 1.04 | 0.867 | 0.782 | 0.635 | 0.786 | 0.928 | 1.19 | 1.05 | 0.772 | 0.353 | 0.595 | 0.571
RGRSTYFWPRP [GAGE12J_Y9_YF] | 1.15 | 0.652 | 1.3 | 0.641 | 1.17 | 0.999 | 0.875 | 0.636 | 1.11 | 1.06 | 0.838 | 0.93 | 1.02 | 0.704 | 0.456 | 0.489
RHLLRYLSWTV [CLCNKB_Y93_S88R] | 0.883 | 0.591 | 0.379 | 0.507 | 0.969 | 0.516 | 0.712 | 0.614 | 0.594 | 0.521 | 0.982 | 0.532 | 1.29 | 1.05 | 1.55 | 1.02
RHNEIYEIKVD [LGR5_Y387] | 1.12 | 0.671 | 0.616 | 8.54 | 0.768 | 8.99 | 0.312 | 6.57 | 0.915 | 1.02 | 1.86 | 0.724 | 1.18 | 0.629 | 1.09 | 0.479
RIGRKCKKVRF [F8_Y442_Y442C] | 0.608 | 0.556 | 0.549 | 0.55 | 0.524 | 0.794 | 0.567 | 0.52 | 0.363 | 0.572 | 0.654 | 1.67 | 0.595 | 0.428 | 0.638 | 0.433
RIILLYIFLKN [STXBP1_Y411] | 0.83 | 0.332 | 0.581 | 0.212 | 0.827 | 0.62 | 0.298 | 0.42 | 0.45 | 0.489 | 0.994 | 0.466 | 1.01 | 1.53 | 1.96 | 1.11
RKETFYTLSCR [GUCY2C_Y681] | 1.32 | 1.27 | 6.83 | 2.44 | 1.29 | 2.02 | 1.17 | 1.03 | 1 | 1.39 | 1.03 | 1.49 | 2.07 | 0.821 | 0.996 | 0.749
RKLASYQSCLL [DHX37_Y1080_R1081Q] | 1.01 | 0.799 | 0.539 | 0.901 | 0.872 | 0.463 | 0.592 | 0.665 | 0.555 | 1.22 | 2.02 | 1.19 | 1.11 | 0.646 | 0.784 | 0.517
RLAKTYETTLK [ALB_Y377_E382K] | 0.768 | 0.681 | 0.695 | 0.82 | 1.65 | 0.817 | 1 | 0.459 | 0.406 | 0.463 | 0.607 | 0.553 | 0.848 | 0.556 | 0.809 | 0.557
RLLRGHDQSAY [HLA-C_Y137_Y137H] | 0.632 | 0.336 | 0.371 | 0.336 | 0.597 | 0.361 | 0.403 | 0.549 | 0.387 | 0.455 | 0.754 | 0.417 | 0.587 | 0.747 | 0.959 | 0.623

Sequence | phosphorylation enrichment (AncSZ) | phosphorylation enrichment (EPHB2) | phosphorylation enrichment (MERTK) | phosphorylation enrichment (Fyn) | phosphorylation enrichment (c-Abl (mouse)) | phosphorylation enrichment (c-Src) | phosphorylation enrichment (EPHB1) | phosphorylation enrichment (Hck) | phosphorylation enrichment (Fer (mouse)) | phosphorylation enrichment (FGFR3) | phosphorylation enrichment (Jak2) | phosphorylation enrichment (FGFR1) | phosphorylation enrichment (Fes) | SH2 binding enrichment (SHP2-C SH2) | SH2 binding enrichment (Grb2 SH2) | SH2 binding enrichment (c-Src SH2)
RLLRGYDQFAY [HLA-C_Y137_S140F] | 0.794 | 0.433 | 0.433 | 0.395 | 0.775 | 0.514 | 0.422 | 0.49 | 0.502 | 0.617 | 0.567 | 0.49 | 0.848 | 1.14 | 1.47 | 1.65
RLLRGYDQSAF [HLA-C_Y137_YF] | 0.669 | 0.526 | 0.443 | 0.416 | 0.708 | 0.459 | 0.422 | 0.439 | 0.502 | 0.712 | 0.628 | 0.412 | 0.592 | 0.953 | 1.26 | 0.758
RLRKFYLGKFL [KLB_Y906_YF] | 0.631 | 0.462 | 0.645 | 0.689 | 0.719 | 0.707 | 0.393 | 0.654 | 0.468 | 0.64 | 0.608 | 0.669 | 0.624 | 0.549 | 0.679 | 0.444
RLRKYYLGKYL [KLB_Y906] | 0.601 | 0.661 | 0.73 | 0.707 | 0.454 | 0.701 | 0.429 | 0.571 | 0.538 | 0.528 | 0.662 | 0.584 | 0.728 | 0.441 | 0.594 | 0.341
RLSARYFQGDL [PDK3_Y337_Y334S] | 0.563 | 0.342 | 0.41 | 0.399 | 0.649 | 0.469 | 0.393 | 0.362 | 0.312 | 0.492 | 0.718 | 0.436 | 0.684 | 1.01 | 0.77 | 0.46
RNEAFYDTFST [EFCAB3_Y372_S370A] | 1.32 | 3.35 | 14.4 | 11.3 | 4.17 | 10 | 1.98 | 10.2 | 7.96 | 0.811 | 1.46 | 0.652 | 1.14 | 0.842 | 1.05 | 0.801
RNGDRYFKGIV [DCX_Y64] | 0.709 | 0.619 | 0.433 | 0.665 | 0.664 | 0.455 | 0.335 | 0.419 | 0.549 | 0.483 | 0.626 | 0.444 | 0.632 | 0.714 | 0.995 | 0.548
RNYDTYTAGLS [RHBDD1_Y264] | 0.955 | 14.6 | 0.841 | 1.49 | 0.729 | 1.39 | 7.39 | 5.02 | 0.707 | 0.438 | 0.677 | 0.602 | 0.901 | 0.572 | 0.707 | 0.621
RPFFLYVAFHD [SGSH_Y174] | 1.28 | 0.579 | 0.442 | 0.381 | 1.24 | 0.43 | 0.731 | 0.58 | 0.47 | 0.941 | 1.54 | 0.503 | 1.58 | 0.377 | 0.847 | 0.581
RPSELYYSKIG [SMG1_Y2253] | 1.08 | 0.88 | 20.1 | 1.69 | 1.01 | 5.63 | 1.79 | 11.3 | 1.59 | 1.84 | 1.06 | 3.1 | 1.23 | 1.1 | 0.758 | 4.1
RPSGRYPVARR [SHANK3_Y1569] | 0.782 | 0.567 | 0.664 | 0.985 | 0.677 | 0.782 | 0.734 | 0.767 | 0.695 | 1.05 | 0.619 | 0.669 | 0.611 | 0.514 | 0.541 | 0.464
RQEEEYKRFSE [SFSWAP_Y133_L136F] | 1.41 | 0.88 | 0.682 | 0.602 | 0.831 | 0.554 | 0.779 | 0.648 | 0.663 | 0.918 | 1.11 | 0.712 | 1.95 | 0.66 | 1.27 | 0.609
RRERPYGGGGG [FUS_Y526] | 0.563 | 0.554 | 0.375 | 0.471 | 0.284 | 0.485 | 0.453 | 0.414 | 0.46 | 0.523 | 0.42 | 0.554 | 0.467 | 0.478 | 0.703 | 0.436
RRIHRYRGHLW [VHL_Y112_S111R] | 0.563 | 0.445 | 0.575 | 0.468 | 0.382 | 0.49 | 0.507 | 0.462 | 0.376 | 0.452 | 0.375 | 0.43 | 0.524 | 0.531 | 0.532 | 0.389
RRIHSNRGHLW [VHL_Y112_Y112N] | 0.702 | 0.48 | 0.677 | 0.574 | 0.825 | 0.625 | 0.496 | 0.709 | 0.485 | 0.408 | 0.653 | 0.357 | 0.732 | 0.568 | 0.923 | 0.484
RRIHSYRRHLW [VHL_Y112_G114R] | 0.735 | 0.82 | 0.707 | 0.65 | 0.699 | 0.584 | 0.725 | 0.746 | 0.529 | 0.718 | 0.633 | 0.868 | 0.699 | 0.678 | 0.918 | 0.536
